Laboratory results reported in patent US20240059759A1.
Where two headings read alike, the source gives them in different places.

Experiments:
[1] = target: SARS-CoV-2 Spike RBD-His Tag, Sino Biological (SARS-CoV-2)
[2] = target: SARS-CoV-2 Spike RBD-His Tag, Sino Biological (SARS-CoV-2); remark: listed apart in the source
[3] = target: SARS-CoV-2 Spike RBD-His Tag, Sino Biological (SARS-CoV-2); remark: listed apart in the source
[4] = target: SARS-CoV-2 Spike RBD-His Tag, Sino Biological (SARS-CoV-2); remark: listed apart in the source
[5] = target: CoV-2 (SARS-CoV-2)
[6] = target: CoV-2 (SARS-CoV-2); remark: listed apart in the source
[7] = target: CoV-2 (SARS-CoV-2); remark: listed apart in the source
[8] = target: SARS-CoV-2 Spike RBD-His Tag, Sino Biological (SARS-CoV-2); remark: listed apart in the source
[9] = target: SARS-CoV-2 Spike RBD-His Tag, Sino Biological (SARS-CoV-2); remark: listed apart in the source
[10] = target: SARS-CoV-2 Spike RBD-His Tag, Sino Biological (SARS-CoV-2); remark: listed apart in the source
[11] = target: SARS-CoV-2 Spike RBD-His Tag, Sino Biological (SARS-CoV-2); remark: listed apart in the source
[12] = target: SARS-CoV-2 Spike RBD-His Tag, Sino Biological (SARS-CoV-2); remark: listed apart in the source
[13] = target: CoV-2 (SARS-CoV-2); remark: listed apart in the source
[14] = target: CoV-2 (SARS-CoV-2); remark: listed apart in the source
[15] = target: SARS-CoV-2 Spike RBD-His Tag, Sino Biological (SARS-CoV-2); remark: listed apart in the source
[16] = target: SARS-CoV-2 Spike RBD-His Tag, Sino Biological (SARS-CoV-2); remark: listed apart in the source
[17] = target: SARS-CoV-2 Spike RBD-His Tag, Sino Biological (SARS-CoV-2); remark: listed apart in the source

B1: vhh_tstrep_sars2_pjl1_L_85 (VHH)
VHH: QVQLQESGGGLVQAGGSLRLSCAASGRTFSEYAMGWFRQAPGKEREFVATISWSGGATYYTDSVKGRFTISRDNAKNTVYLQMNSLKPDDTAVYYCAAAGLETVVSEWDYDYDYWGQGTQVTVSS
- xmid (log10) [1]: -0.815
- xmid (log10) [2]: -1.05

B2: vhh_tstrep_sars2_pjl1_L_127 (VHH)
VHH: QVQLQESGGGLVQAGGSLRLSCAASGRTFSEYAMGWFRQAPGKEREFVATISWSGGAAYHTDSVKGRFTISRDNAKNTVYLQMNSLKPDDTAVYYCAAAGLGTVVSEWDYDYDYWGQGTQVTVSS
- xmid (log10) [3]: -0.006
- xmid (log10) [4]: 0.479

B3: vhh_tstrep_sars2_pjl1_L_81 (VHH)
VHH: QVQLQESGGGLVQAGGSLRLSCAASGRTFSEYAMGWFRQAPGKEREFVATISWSGGATYYTDSVKGRFTISRDNAKNTVYLQMNSLKPDDTAVYYCAAARLGTVVSEWDYDYDYWGQGTQVTVSS
- xmid (log10) [1]: 1.06
- xmid (log10) [2]: 0.479

B4: vhh_tstrep_sars2_pjl1_L_118 (VHH)
VHH: QVQLQESGGGLVQAGGSLRLSCAASGRTFSEYAMGWFRQAPGKEREFVATISWSGGATGHTDSVKGRFTISRDNAKNTVYLQMNSLKPDDTAVYYCAAAGLGTVVSEWDYDYDYWGQGTQVTVSS
- xmid (log10) [3]: 0.412
- xmid (log10) [4]: 0.784

B5: vhh_tstrep_sars2_pjl1_L_121 (VHH)
VHH: QVQLQESGGGLVQAGGSLRLSCAASGRTFSEYAMGWFRQAPGKEREFVATISWSGWATYHTDSVKGRFTISRDNAKNTVYLQMNSLKPDDTAVYYCAAAGLGTVVSEWDYDYDYWGQGTQVTVSS
- xmid (log10) [3]: -0.645
- xmid (log10) [4]: -0.224

B6: vhh_tstrep_sars2_pjl1_L_22 (VHH)
VHH: QVQLQESGGGLVQAGGSLRLSCAASGRTFSEYAMGWFRQAPGKEREFVATISASGGSTYYTDSVKGRFTISRDNAKNTVYLQMNSLKPDDTAVYYCAAAGLGTVVSEWDYDYDYWGQGTQVTVSS
- xmid (log10) [5]: 0.892
- xmid (log10) [6]: 1.08
- xmid (log10) [7]: 0.688

B7: vhh_tstrep_sars2_pjl1_L_120 (VHH)
VHH: QVQLQESGGGLVQAGGSLRLSCAASGRTFSEYAMGWFRQAPGKEREFVATISWSGGATYHTDSVDGRFTISRDNAKNTVYLQMNSLKPDDTAVYYCAAAGLGTVVSEWDYDYDYWGQGTQVTVSS
- xmid (log10) [8]: -0.493
- xmid (log10) [9]: -0.0348

B8: vhh_tstrep_sars2_pjl1_L_82 (VHH)
VHH: QVQLQESGGGLVQAGGSLRLSCAASGRTFSEYAMGWFRQAPGKEREFVATISWSGGATYYTDSVKGRFTISRDNAKNTVYLQMNSLKPDDTAVYYCAAAELGTVVSEWDYDYDYWGQGTQVTVSS
- xmid (log10) [1]: 0.109
- xmid (log10) [2]: 0.155

B9: vhh_tstrep_sars2_pjl1_L_128 (VHH)
VHH: QVQLQESGGGLVQAGGSLRLSCAASGRTFSEYAMGWFRQAPGKEREFVATISPSGGATYHTDSVKGRFTISRDNAKNTVYLQMNSLKPDDTAVYYCAAAGLGTVVSEWDYDYDYWGQGTQVTVSS
- xmid (log10) [10]: -0.2
- xmid (log10) [11]: 0.384

B10: vhh_tstrep_sars2_pjl1_L_119 (VHH)
VHH: QVQLQESGGGLVQAGGSLRLSCAASGRTFSEYAMGWFRQAPGKEREFVATESWSGGATYHTDSVKGRFTISRDNAKNTVYLQMNSLKPDDTAVYYCAAAGLGTVVSEWDYDYDYWGQGTQVTVSS
- xmid (log10) [9]: 0.39
- xmid (log10) [4]: 0.385

B11: vhh_tstrep_sars2_pjl1_L_130 (VHH)
VHH: QVQLQESGGGLVQAGGSLRLSCAASGRTFSEYAMGWFRQAPGKEREFVATISWSGGATYHTDSVKARFTISRDNAKNTVYLQMNSLKPDDTAVYYCAAAGLGTVVSEWDYDYDYWGQGTQVTVSS
- xmid (log10) [10]: -0.532
- xmid (log10) [11]: 0.204

B12: vhh_tstrep_sars2_pjl1_L_125 (VHH)
VHH: QVQLQESGGGLVQAGGSLRLSCAASGRTFSEYAMGWFRQAPGKEREFVATISWSGGATYHTDSVKGRFTISRDNAKNTVYLQMNSLKPDDTAVYYCAAAGLRTVVSEWDYDYDYWGQGTQVTVSS
- xmid (log10) [12]: 0.297
- xmid (log10) [9]: 0.108

B13: vhh_tstrep_sars2_pjl1_L_124 (VHH)
VHH: QVQLQESGGGLVQAGGSLRLSCAASGRTFSEYAMGWFRQAPGKEREFVATISWSGGGTYHTDSVKGRFTISRDNAKNTVYLQMNSLKPDDTAVYYCAAAGLGTVVSEWDYDYDYWGQGTQVTVSS
- xmid (log10) [3]: -1.89
- xmid (log10) [12]: -1.84

B14: vhh_tstrep_sars2_pjl1_L_40 (VHH)
VHH: QVQLQESGGGLVQAGGSLRLSCAASGRTFSEYAMGWFRQAPGKEREFVATISWSGGSTYYTASVKGRFTISRDNAKNTVYLQMNSLKPDDTAVYYCAAAGLGTVVSEWDYDYDYWGQGTQVTVSS
- xmid (log10) [13]: -0.664
- xmid (log10) [14]: 0.226

B15: vhh_tstrep_sars2_pjl1_L_135 (VHH)
VHH: QVQLQESGGGLVQAGGSLRLSCAASGRTFSEYAMGWFRQAPGKEREFVATISWSGGATYHTDSVKGRFTISRDNAKNTVYLQMNSLKPDDTAVYYCAAAGLWTVVSEWDYDYDYWGQGTQVTVSS
- xmid (log10) [15]: -1.65
- xmid (log10) [11]: -1.5

B16: vhh_tstrep_sars2_pjl1_L_123 (VHH)
VHH: QVQLQESGGGLVQAGGSLRLSCAASGRTFSEYAMGWFRQAPGKEREFVATISWIGGATYHTDSVKGRFTISRDNAKNTVYLQMNSLKPDDTAVYYCAAAGLGTVVSEWDYDYDYWGQGTQVTVSS
- xmid (log10) [15]: 0.157
- xmid (log10) [11]: 0.9

B17: vhh_tstrep_sars2_pjl1_L_116 (VHH)
VHH: QVQLQESGGGLVQAGGSLRLSCAASGRTFSEYAMGWFRQAPGKEREFVASISWSGGATYHTDSVKGRFTISRDNAKNTVYLQMNSLKPDDTAVYYCAAAGLGTVVSEWDYDYDYWGQGTQVTVSS
- xmid (log10) [8]: -0.0157
- xmid (log10) [9]: 0.288

B18: vhh_tstrep_sars2_pjl1_L_117 (VHH)
VHH: QVQLQESGGGLVQAGGSLRLSCAASGRTFSEYAMGWFRQAPGKEREFVATISWSGGATYHTWSVKGRFTISRDNAKNTVYLQMNSLKPDDTAVYYCAAAGLGTVVSEWDYDYDYWGQGTQVTVSS
- xmid (log10) [16]: -1.5
- xmid (log10) [4]: -1.7

B19: vhh_tstrep_sars2_pjl1_L_133 (VHH)
VHH: QVQLQESGGGLVQAGGSLRLSCAASGRTFSEYAMGWFRQAPGKEREFVATISWSGGATYHTDSVKGRFTISRDNAKNTVYLQMNSLKPDDTAVYYCAAAGLGTVVSEWDYDYDSWGQGTQVTVSS
- xmid (log10) [15]: -1.7
- xmid (log10) [12]: -1.46

B20: vhh_tstrep_sars2_pjl1_L_46 (VHH)
VHH: QVQLQESGGGLVQAGGSLRLSCAASGRTFSEYAMGWFRQAPGKEREFVATISWSGGSTYYTDSVKGRFTISRDNAKNTVYLQMNSLKPDDTAVYYCAAAGLGTVVSEADYDYDYWGQGTQVTVSS
- xmid (log10) [13]: 1.65

B21: vhh_tstrep_sars2_pjl1_L_32 (VHH)
VHH: QVQLQESGGGLVQAGGSLRLSCAASGRTFSEYAMGWFRQAPGKEREFVATISWSGGSTYYTDSVKGRFTISRDNAKNTVYLQMNSLKPDDTAVYYCAAAGLGTVVSAWDYDYDYWGQGTQVTVSS
- xmid (log10) [5]: 0.532
- xmid (log10) [6]: 0.239
- xmid (log10) [7]: -0.271

B22: vhh_tstrep_sars2_pjl1_L_132 (VHH)
VHH: QVQLQESGGGLVQAGGSLRLSCAASGRTFSEYAMGWFRQAPGKEREFVATISWGGGATYHTDSVKGRFTISRDNAKNTVYLQMNSLKPDDTAVYYCAAAGLGTVVSEWDYDYDYWGQGTQVTVSS
- xmid (log10) [15]: -0.157
- xmid (log10) [17]: 0.0703

B23: vhh_tstrep_sars2_pjl1_L_38 (VHH)
VHH: QVQLQESGGGLVQAGGSLRLSCAASGRTFSEYAMGWFRQAPGKEREFVATISWSGGSTYYTDSVKGRFTISRDNAKNTVYLQMNSLKPDDTAVYYCAAAGLGTVVSEWAYDYDYWGQGTQVTVSS
- xmid (log10) [13]: -0.286
- xmid (log10) [5]: 0.854
- xmid (log10) [6]: 0.0417

B24: vhh_tstrep_sars2_pjl1_L_129 (VHH)
VHH: QVQLQESGGGLVQAGGSLRLSCAASGRTFSEYAMGWFRQAPGKEREFVATISWSGGATYHTTSVKGRFTISRDNAKNTVYLQMNSLKPDDTAVYYCAAAGLGTVVSEWDYDYDYWGQGTQVTVSS
- xmid (log10) [10]: -1.34
- xmid (log10) [4]: -1.34

B25: vhh_tstrep_sars2_pjl1_L_126 (VHH)
VHH: QVQLQESGGGLVQAGGSLRLSCAASGRTFSEYAMGWFRQAPGKEREFVATISWSGGASYHTDSVKGRFTISRDNAKNTVYLQMNSLKPDDTAVYYCAAAGLGTVVSEWDYDYDYWGQGTQVTVSS
- xmid (log10) [3]: -0.398
- xmid (log10) [11]: 0.489

B26: vhh_tstrep_sars2_pjl1_L_24 (VHH)
VHH: QVQLQESGGGLVQAGGSLRLSCAASGRTFSEYAMGWFRQAPGKEREFVATISWSGGSTAYTDSVKGRFTISRDNAKNTVYLQMNSLKPDDTAVYYCAAAGLGTVVSEWDYDYDYWGQGTQVTVSS
- xmid (log10) [14]: 0.515
- xmid (log10) [5]: 0.908
- xmid (log10) [7]: 0.582

B27: vhh_tstrep_sars2_pjl1_L_137 (VHH)
VHH: QVQLQESGGGLVQAGGSLRLSCAASGRTFSEYAMGWFRQAPGKEREFVATISWSGGATYHTDSVKGRFTISRDNAKNTVYLQMNSLKPDDTAVYYCAAAGLGTVVSAWDYDYDYWGQGTQVTVSS
- xmid (log10) [15]: -1.3
- xmid (log10) [17]: -0.676
